This series concerns the molecule itself. Description: SAXS.

This is an account of results in publication PMC4856591 (Structure (London, England : 1993), 2016).

B1: Human PKG Iβ LZ:CNB-A/B (residues 1-369) (domain or fragment, UniProt Q13976-2 1-369, looked up)
chain: MGTLRDLQYALQEKIEELRQRDALIDELELELDQKDELIQKLQNELDKYRSVIRPATQQAQKQSASTLQGEPRTKRQAISAEPTAFDIQDLSHVTLPFYPKSPQSKDLIKEAILDNDFMKNLELSQIQEIVDCMYPVEYGKDSCIIKEGDVGSLVYVMEDGKVEVTKEGVKLCTMGPGKVFGELAILYNCTRTATVKTLVNVKLWAIDRQCFQTIMMRTGLIKHTEYMEFLKSVPTFQSLPEEILSKLADVLEETHYENGEYIIRQGARGDTFFIISKGTVNVTREDSPSEDPVFLRTLGKGDWFGEKALQGEDVRTANVIAAEAVTCLVIDRDSFKHLIGGLDDVSNKAYEDAEAKAKYEAEAAFFAN
For the protein B1, the binding result is on record as “binds”.
